The record followed here is patent US20080305517A1, “Transglutaminase Crosslinked Collagen Biomaterial for Medical Implant Materials” (ASTON UNIVERSITY, priority 2004, published 2008).

Series [1] concerns Type III collagen. As to the kind of experiment: Collagen fibril formation rate (turbidity at 325 nm), type III collagen. The format is biochemical. The method, then:
(§1) FIG. 2. Type III collagen fibrillogenesis after neutralisation in the presence of transglutaminases. Collagen (3 mg/ml) was neutralised as in the methods and was treated with 0, 50 or 250 μg/ml of mTG (A) or tTG (B). 500 μM inhibitor R281 was used to confirm that the effects were due to transglutaminase activity. The absorbance at 325 nm was measured using a PYE Unicam SP1800 UV spectrophotometer. The temperature was controlled at 25° C. using a Techne C-85A circulator. Results are from the average of 3 independent experiments.
(§2) Collagen fibrillogenesis was monitored by measuring the absorbance (turbidity) at 325 nm using a PYE Unicam SP1800 UV spectrophotometer.

In series [2] the test system is Type I collagen. As to the kind of experiment: Collagen fibril formation rate (turbidity at 325 nm), type I collagen. The series is classed as biochemical, calf. On the procedure: as §1, with “1.” for “2.”, “I” for “III”, “microbial TG” for “mTG”, “μM of the TGase” for “μM”, “N-Benzyloxycarbonyl-L-phenylalanyl-6-dimethyl-sulfonium-5-oxo-L-norleucine (‘R281’)” for “R281”
as §2

Series [3] concerns N,N′-dimethylcasein. Nature of the series: Transglutaminase activity: incorporation of [14-C]-putrescine into N,N′-dimethylcasein. Conditions: Unit = 1 nmol of putrescine incorporated per hour. The series is classed as biochemical. From the text:
The incorporation of [14-C]-putrescine into N,N′-dimethylcasein, as described earlier by Lorand et al. (1972) was used to assay for TG activity and monitor the effects of the inhibitors. Unit of transglutaminase activity is 1 nmol of putrescine incorporated per hour.

Series [4] is described as follows: Determination of ε-(γ-glutamyl)lysine cross-link (ion exchange amino acid analysis of digested collagen). The series is classed as physicochemical. Conditions: for the equivalent (μg of protein) TG concentration. The method, then: Neutralised collagen mixture was subjected to treatment by both tissue and microbial TG. Samples of the neutralised collagen were treated with 50-1000 μg/ml of tTG, in a reaction mix consisting of 2 mM DTT and 5 mM CaCl2 in 10 mM Tris buffer (pH 7.4). The reaction mixture for the microbial enzyme simply consisted of 10 mM Tris buffer (pH 7.4). Incorporated fibronectin (Sigma-Aldrich, Poole, UK. Cat no. F0895) was used at concentrations of 5 μg/ml and 50 μg/ml. Transglutaminase was always added last to the collagen-reaction mix to minimise any self-imposed cross-linking. […]
Cross-linked and native samples of collagen were proteolytically digested by a modification of the methods of Griffin and Wilson (1984), which included an initial digestion with microbial collagenase (Clostridium histolyticum; 1 mg/ml, Sigma-Aldrich, Poole, UK. Cat no. C9891), prior to the addition of further proteases. […] Derivatisation was performed post column using o-pthaldialdehyde (0.8M boric acid, 0.78M potassium hydroxide, […] o-phthaldialdehyde, 0.5% (v/v) methanol, 0.75% (v/v) 2-mercaptoethanol, 0.35% (v/v) Brij 30) and the absorbance was measured at 450 nm. Dipeptide was determined by addition of known amounts of ε(γ-glutamyl)lysine to the sample and comparing peak areas.

[5] abbreviates: 50 μg or 250 μg of TG, collagen 3 mg/ml, absorbance at 325 nm, 25° C., vs untreated.

Turning to `C[S+](C)CC(=O)CC[C@H](NC(=O)[C@H](Cc1ccccc1)NC(=O)OCc1ccccc1)C(=O)O.[Br-]` [R281, N-Benzyloxycarbonyl-L-phenylalanyl-6-dimethylsulfonium-5-oxo-L-nor-leucine bromide salt, reference compound], the “inhibition of the transglutaminase effects on fibrillogenesis” value in series [1] (500 μM inhibitor) and in series [2] (500 μM inhibitor) was “abolished these effects” in each case.

B1: mTG: Microbial transglutaminase from Streptoverticillium mobaraenase, purified from Activa WM (Ajinomoto) (protein, UniProt P81453 77-407, looked up)
Protein-glutamine …: DSDDRVTPPAEPLDRMPDPYRPSYGRAETVVNNYIRKWQQVYSHRDGRKQQMTEEQREWLSYGCVGVTWVNSGQYPTNRLAFASFDEDRFKNELKNGRPRSGETRAEFEGRVAKESFDEEKGFQRAREVASVMNRALENAHDESAYLDNLKKELANGNDALRNEDARSPFYSALRNTPSFKERNGGNHDPSRMKAVIYSKHFWSGQDRSSSADKRKYGDPDAFRPAPGTGLVDMSRDRNIPRSPTSPGEGFVNFDYGWFGAQTEADADKTVWTHGNHYHAPNGSLGAMHVYESKFRNWSEGYSDFDRGAYVITFIPKSWNTAPDKVKQGWP
With B1, in series [3], the “Activity of the transglutaminase used to pre-treat collagen for the cell experiments” value was found to be 16000 Units/mg and the “Typical activities for the transglutaminases used” value is listed as 16000-25000 Units/mg. The “amount of isopeptide formed, comparison in words” value in series [4] is listed as “much greater increase (almost two-fold)”. Besides, in series [1] (setting [5]), the “time taken to achieve gel formation” value is “significant reduction”. Moreover, the “time taken to achieve gel formation” value in series [2] (setting [5]) was “significant reduction”.
